Test results taken from the supplement of paper PMC10126150.
± gives the standard deviation of the averaged measurements.

system: ATP; experiment: switch fluorescence ratio, 500 uM ATP over buffer (Cy3 cluster intensity, sum of 5 cycles each) (fold (ratio)); higher = stronger signal-on switching upon ATP binding; sequences stand for … in TCGTCGGCAGCGTCAGATGTGTATAAGAGACAGTTTTTTTTTTTTTTTTTTTTTTTTT…TC; settings: aptamer strand: ATP DNA aptamer (quencher-CACCTGGGGGAGTATTGCGGAGGAAGG + anchor), 100 nM annealed; ATP concentration: 500 uM
Outline: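 Exposure to 500 uM ATP lasted 15 min at 22 °C before imaging, and a selection-buffer image was taken beforehand, for Cy3-labelled switching-strand clusters on a modified Illumina MiSeq flow-cell annealed to 100 nM quencher-labelled ATP aptamer. Five buffer/ATP cycles were run with NaOH stripping and re-annealing between them. The fluorescence ratio per cluster is summed target-cycle over summed buffer-cycle Cy3 intensity, averaged per switch-domain sequence. Clusters outside 100-1000 RFU were excluded.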

| Sequence | switch fluorescence ratio |
| --- | --- |
| ATGCATGGTA | 1.03 ± 0.009 |
| ATGCATTATG | 1.02 ± 0.016 |
| ATGCCAAAAG | 1.01 ± 0.042 |
| ATGCCAGGGA | 1.01 ± 0.023 |
| ATGCCAGGGT | 0.998 ± 0.031 |
| ATGCCCGGGC | 0.988 ± 0.017 |
| ATGCCGGTGT | 0.996 ± 0.057 |
| ATGCCTGGGC | 1.03 ± 0.057 |
| ATGCGAAACC | 1.02 ± 0.051 |
| ATGCGACGCT | 1.091 ± 0.0038 |
| ATGCGCGGTA | 1.01 ± 0.068 |
| ATGCGGGGGG | 1.01 ± 0.021 |
| ATGCGGGGTT | 1.02 ± 0.05 |
| ATGCGGGTG | 1.04 ± 0.061 |
| ATGCGTGACA | 1.02 ± 0.036 |
| ATGCTACCGT | 1.03 ± 0.049 |
| ATGCTACCTT | 1.1 ± 0.048 |
| ATGCTATTGT | 1.03 ± 0.046 |
| ATGCTCGCGG | 0.983 ± 0.038 |
| ATGCTGCGGG | 1.06 ± 0.068 |
| ATGCTGGGAC | 1.01 ± 0.024 |
| ATGCTGGGGG | 0.994 ± 0.013 |
| ATGCTGTTGC | 0.9631 ± 0.0065 |
| ATGGAAAATT | 1.04 ± 0.02 |
| ATGGAAGGGT | 0.988 ± 0.052 |

| Sequence | switch fluorescence ratio |
| --- | --- |
| ATGGAAGTTA | 1.011 ± 0.0057 |
| ATGGAATGGG | 0.959 ± 0.01 |
| ATGGAATTTG | 0.98 ± 0.0098 |
| ATGGACTATC | 1.03 ± 0.046 |
| ATGGACTGAA | 0.992 ± 0.013 |
| ATGGAGACGG | 0.979 ± 0.019 |
| ATGGAGCTAC | 4.67 ± 1.3 |
| ATGGAGGTTG | 1.03 ± 0.022 |
| ATGGAGTAAC | 0.987 ± 0.011 |
| ATGGATGCCT | 1.01 ± 0.051 |
| ATGGATGGGC | 1.04 ± 0.057 |
| ATGGCAGTGT | 0.993 ± 0.018 |
| ATGGCGAGGT | 1.01 ± 0.059 |
| ATGGCGATTG | 0.996 ± 0.0078 |
| ATGGCGTAGT | 0.975 ± 0.036 |
| ATGGCGTCCA | 0.977 ± 0.045 |
| ATGGCTGGGG | 1 ± 0.019 |
| ATGGCTGTCA | 1.012 ± 0.0012 |
| ATGGCTTGTC | 1.03 ± 0.038 |
| ATGGGAAAAA | 1.01 ± 0.014 |
| ATGGGAACCT | 1.12 ± 0.18 |
| ATGGGAAGTC | 0.992 ± 0.024 |
| ATGGGACAGC | 0.975 ± 0.033 |
| ATGGGAGAAG | 0.95776 ± 0.00073 |
| ATGGGAGTAG | 0.9562 ± 0.0062 |

| Sequence | switch fluorescence ratio |
| --- | --- |
| ATGGGATCTG | 0.999 ± 0.025 |
| ATGGGCAGAT | 0.994 ± 0.071 |
| ATGGGCATGG | 1.04 ± 0.072 |
| ATGGGCATTA | 1 ± 0.017 |
| ATGGGCCCGT | 1.01 ± 0.1 |
| ATGGGCGTAC | 1.03 ± 0.054 |
| ATGGGCGTAT | 1.04 ± 0.017 |
| ATGGGCTAGC | 1.009 ± 0.0014 |
| ATGGGCTCTT | 1.04 ± 0.049 |
| ATGGGGAATT | 0.995 ± 0.035 |
| ATGGGGAGAG | 1.02 ± 0.028 |
| ATGGGGAGGC | 1.05 ± 0.051 |
| ATGGGGATGG | 0.978 ± 0.033 |
| ATGGGGCACG | 0.987 ± 0.037 |
| ATGGGGGACT | 1.02 ± 0.051 |
| ATGGGGGCCT | 1.02 ± 0.048 |
| ATGGGGGGAC | 0.987 ± 0.027 |
| ATGGGGGGAG | 0.997 ± 0.025 |
| ATGGGGGGG | 1.01 ± 0.014 |
| ATGGGGGGGA | 1.02 ± 0.027 |
| ATGGGGGTGT | 1.004 ± 0.0059 |
| ATGGGGTAAC | 0.969 ± 0.011 |
| ATGGGGTCGG | 1 ± 0.035 |
| ATGGGGTGGT | 0.993 ± 0.025 |
| ATGGGGTT | 0.992 ± 0.0053 |

| Sequence | switch fluorescence ratio |
| --- | --- |
| ATGGGGTTCG | 0.993 ± 0.035 |
| ATGGGTACTG | 0.963 ± 0.022 |
| ATGGGTAGGG | 0.967 ± 0.017 |
| ATGGGTAGTG | 0.984 ± 0.02 |
| ATGGGTCCTG | 0.979 ± 0.048 |
| ATGGGTTACG | 1 ± 0.033 |
| ATGGGTTGAG | 1.01 ± 0.0072 |
| ATGGGTTTCT | 0.989 ± 0.026 |
| ATGGTAACGG | 0.965 ± 0.042 |
| ATGGTAATTT | 0.977 ± 0.017 |
| ATGGTAGCGC | 1 ± 0.039 |
| ATGGTAGTAT | 0.986 ± 0.016 |
| ATGGTAGTGC | 0.986 ± 0.016 |
| ATGGTATAGG | 1.01 ± 0.032 |
| ATGGTATATA | 0.982 ± 0.025 |
| ATGGTATGAA | 0.979 ± 0.035 |
| ATGGTCGCGC | 0.993 ± 0.04 |
| ATGGTCGGGG | 0.995 ± 0.042 |
| ATGGTCTTAT | 0.997 ± 0.014 |
| ATGGTGAGCG | 0.978 ± 0.017 |
| ATGGTGATAG | 0.992 ± 0.011 |
| ATGGTGGATT | 0.965 ± 0.025 |
| ATGGTGGCCG | 0.997 ± 0.026 |
| ATGGTGGGCT | 0.9811 ± 0.0032 |
| ATGGTGGGGG | 0.995 ± 0.034 |

| Sequence | switch fluorescence ratio |
| --- | --- |
| ATGGTGTACT | 1.012 ± 0.0033 |
| ATGGTGTTCG | 0.987 ± 0.019 |
| ATGGTGTTGC | 0.964 ± 0.028 |
| ATGGTTAAAG | 0.996 ± 0.026 |
| ATGGTTATGC | 1.03 ± 0.051 |
| ATGGTTCAAT | 0.987 ± 0.029 |
| ATGGTTCACT | 1.023 ± 0.0032 |
| ATGGTTCCCT | 1.01 ± 0.02 |
| ATGGTTGGGT | 0.994 ± 0.012 |
| ATGGTTGTGT | 0.983 ± 0.034 |
| ATGGTTTATG | 0.9812 ± 0.0077 |
| ATGGTTTGGT | 0.997 ± 0.024 |
| ATGGTTTTAA | 1.03 ± 0.02 |
| ATGGTTTTAG | 0.993 ± 0.033 |
| ATGTAAAAGT | 0.986 ± 0.043 |
| ATGTAATAGT | 1.014 ± 0.0069 |
| ATGTAATCTA | 0.961 ± 0.036 |
| ATGTAATTTG | 0.988 ± 0.03 |
| ATGTACTTGG | 1.02 ± 0.013 |
| ATGTAGAAAT | 1.05 ± 0.039 |
| ATGTAGCATA | 1.57 ± 0.082 |
| ATGTAGGCAG | 0.961 ± 0.029 |
| ATGTATAGCA | 1 ± 0.041 |
| ATGTATGGGC | 0.9814 ± 0.0047 |
| ATGTATGTAA | 1.01 ± 0.018 |

| Sequence | switch fluorescence ratio |
| --- | --- |
| ATGTATGTGG | 0.987 ± 0.049 |
| ATGTATTATA | 1.01 ± 0.013 |
| ATGTCAAGGG | 0.9944 ± 0.0085 |
| ATGTCACTTG | 1.02 ± 0.018 |
| ATGTCAGATT | 1.01 ± 0.037 |
| ATGTCAGGGT | 0.9732 ± 0.0086 |
| ATGTCATTGG | 1.01 ± 0.024 |
| ATGTCCAAGG | 1.005 ± 0.0071 |
| ATGTCCTGTG | 1.01 ± 0.028 |
| ATGTCGGCTT | 1.03 ± 0.018 |
| ATGTCGGTTT | 1.02 ± 0.026 |
| ATGTCGTGGC | 1 ± 0.048 |
| ATGTGATAGG | 1.01 ± 0.058 |
| ATGTGATAGT | 0.98 ± 0.015 |
| ATGTGCCAGT | 0.962 ± 0.012 |
| ATGTGCCTGT | 0.9799 ± 0.0065 |
| ATGTGCGCAC | 1.002 ± 0.0023 |
| ATGTGCTGGG | 0.981 ± 0.031 |
| ATGTGCTGGT | 0.991 ± 0.021 |
| ATGTGCTTAG | 1.04 ± 0.084 |
| ATGTGGACTG | 1.05 ± 0.014 |
| ATGTGGCGTC | 1.01 ± 0.019 |
| ATGTGGGGAG | 0.9941 ± 0.002 |
| ATGTGTAACA | 0.97 ± 0.037 |
| ATGTGTATCG | 0.969 ± 0.039 |

| Sequence | switch fluorescence ratio |
| --- | --- |
| ATGTGTATGG | 0.998 ± 0.018 |
| ATGTGTCGCG | 0.9917 ± 0.0045 |
| ATGTGTGAGG | 1.01 ± 0.014 |
| ATGTGTTACA | 1.01 ± 0.03 |
| ATGTTAGGCT | 0.998 ± 0.025 |
| ATGTTATTG | 0.973 ± 0.031 |
| ATGTTCCTAC | 1.04 ± 0.011 |
| ATGTTCGTTA | 1.0123 ± 0.00085 |
| ATGTTCTCAA | 0.998 ± 0.01 |
| ATGTTCTCCG | 1.14 ± 0.035 |
| ATGTTCTCGT | 0.995 ± 0.021 |
| ATGTTCTCTG | 1.033 ± 0.0091 |
| ATGTTGAAGG | 1.03 ± 0.069 |
| ATGTTGGGTA | 0.982 ± 0.019 |
| ATGTTGGGTG | 1.02 ± 0.045 |
| ATGTTGGTTT | 0.996 ± 0.021 |
| ATGTTGTATT | 1.01 ± 0.052 |
| ATGTTGTGCT | 0.984 ± 0.045 |
| ATGTTGTTTG | 0.979 ± 0.014 |
| ATGTTTATGA | 0.981 ± 0.031 |
| ATGTTTGAAG | 0.9844 ± 0.0042 |
| ATGTTTGATG | 0.998 ± 0.024 |
| ATGTTTGCCT | 1.002 ± 0.0087 |
| ATGTTTGGAG | 0.982 ± 0.018 |
| ATGTTTGGGC | 0.9597 ± 0.0085 |

| Sequence | switch fluorescence ratio |
| --- | --- |
| ATGTTTTATC | 0.994 ± 0.016 |
| ATGTTTTCGG | 0.99 ± 0.044 |
| ATTAAAAAAA | 1.11 ± 0.18 |
| ATTAAAAAAC | 1.01 ± 0.016 |
| ATTAAAATAT | 1.12 ± 0.19 |
| ATTAAACAG | 1.05 ± 0.07 |
| ATTAAACCAG | 1.1 ± 0.11 |
| ATTAAAGGTT | 0.99 ± 0.022 |
| ATTAAAGTAG | 1.006 ± 0.0067 |
| ATTAAATCCG | 1.042 ± 0.0099 |
| ATTAACGAGG | 1.04 ± 0.013 |
| ATTAACTTCG | 0.983 ± 0.013 |
| ATTAAGAAGG | 1.002 ± 0.0095 |
| ATTAAGGGGA | 1.04 ± 0.049 |
| ATTAATCAGT | 1.002 ± 0.0083 |
| ATTAATCCAT | 0.987 ± 0.019 |
| ATTAATGTGA | 1 ± 0.031 |
| ATTAATTGTG | 1.01 ± 0.018 |
| ATTACAAAAA | 1.01 ± 0.014 |
| ATTACCCGGA | 1 ± 0.028 |
| ATTACCGGCG | 0.996 ± 0.025 |
| ATTACGGAAA | 1.74 ± 0.96 |
| ATTACGGAAC | 1.26 ± 0.018 |
| ATTACGGCAC | 2.09 ± 0.14 |
| ATTACGGTCT | 1.04 ± 0.02 |
